Residue numbers refer to the chain shown, from its start. Blank lines part the entries; values can stand above or below the binder they belong to.
Columns and labels:
[1] = molecular target: T1, Rhesus macaque CD4-HIS (Acro Biosystems, Cat. CD4-C52H7) (rhesus macaque, UniProt P16003 26-390); assay: BLI (Octet Red384); purified antibody captured on anti-mouse IgG Fc (AMC) sensors, rhesus CD4-HIS analyte at 100, 50, 25 nM; global 1:1 fit
T1 construct: Bought recombinant protein; also called Rhesus CD4; rhesus CD4-HIS; not shown: His tag

[2] = molecular target: T2, Rhesus macaque CD4-HIS (Acro Biosystems, Cat. CD4-C52H7) (rhesus macaque, UniProt P16003 26-390); assay: BLI (Octet Red384); Ab on anti-mouse Fc (AMC) sensor; rhesus CD4-HIS as analyte
T2 construct: Bought reagent; also called Rhesus CD4; rhesus CD4-HIS; not shown: His tag

Kd [1]: 8.8 nM
koff [1]: 0.00066 s⁻¹
kon [1]: 75000 M⁻¹ s⁻¹
B1: 75110_14P08A (antibody, V domains shown)
VH: QVQLQESGPGLVKSSETLSLTCTDSGDSIRSYYWNWIRQPAGKGLEWIGRIYASGSTNYNPSLKSRVIMSADTSKNRFSLKLSSVTAADTAVYYCARDGGVGDSLDYWGQGTLVTVSS
VL: DIVMTQTPLSLPVTPGEPASISCRSSQSLLDSDDGNTYLDWYLQKPGQSPQLLIYTLSYRASGVPDRFSGSGSGTDFTLKISRVEAEDVGVYYCMQRIEFPFTFGPGTKVDIK
notes: Tested as antibody purified from the AlivaMab Mouse hybridoma supernatant (chimeric AlivaMab; captured by anti-mouse IgG Fc sensors, human kappa light chain); also called ADS75110 purified AMM Ab 75110_14P08A; Sib8.2

B2: 75110_07J24A (antibody, V domains shown)
VH: QAQLQESGPGLVKPSETLSLTCTVSGGSISSYYYNWIRQPAGKGLEWIGRIYTSGRTDYNPSLKSRVTMSADTSKNQFSLKLSSVTAADTAVYYCARDEGPTDAFDIWGQGTMVTVSS
VL: B1 VL with Q51H, T75S
notes: Tested as antibody purified from AlivaMab Mouse hybridoma supernatant (human variable domains, kappa; mouse Fc, captured on anti-mouse IgG Fc sensors); also called ADS75110 purified AMM Ab
binding result [2]: no binding (tested: 100 nM (highest of 100, 50, 25 nM))

B3: 75110_14G10A (antibody, V domains shown)
VH: EVQLVESGGGLVKPGGSLRLSCAASGFTFSSYSMNWVRQAPGKGLEWVSFISSSSSYIYYADSVKGRFTISRDNAKNSLYLQMNSLRAEDTAVYYCARERGDDYGDYEGAFDIWGQGTMVTVSS
VL: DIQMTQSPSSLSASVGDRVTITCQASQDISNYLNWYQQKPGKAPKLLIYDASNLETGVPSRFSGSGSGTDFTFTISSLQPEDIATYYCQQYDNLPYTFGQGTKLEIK
notes: as for B2
binding result [2]: no binding (tested: 100 nM (highest of 100, 50, 25 nM))

— patent US20220112288A1 (published 2022)
